Target: His827 (UniProt position 827, GQFLDHDLDST)
Assay: kinetics (stopped-flow UV-vis spectroscopy)
Details: 25 °C (stated for the stopped-flow reactions in general; not restated for the pH profile); Citrate phosphate buffer pH 4-5.5; phosphate buffer pH 5.5-8; carbonate buffer pH 9 and 10. A concentration of 100 mM is given for the analogous bromide pH profile in the Fig. 7D caption.; Ferric high-spin resting enzyme reacting with H2O2 to form compound I; heme covalently linked

Q: How did the pKa turn out when “Peroxidasin 1, truncated construct hsPxd01-con4 (four Ig domains + peroxidase domain) (Homo sapiens)” was run?
A: ∼4.7

Reference: PMC5377774
